The target in this data set is T1, Twinkle (mitochondrial DNA helicase) (human, UniProt Q96RR1 43-684, del1-42).
T1 sequence: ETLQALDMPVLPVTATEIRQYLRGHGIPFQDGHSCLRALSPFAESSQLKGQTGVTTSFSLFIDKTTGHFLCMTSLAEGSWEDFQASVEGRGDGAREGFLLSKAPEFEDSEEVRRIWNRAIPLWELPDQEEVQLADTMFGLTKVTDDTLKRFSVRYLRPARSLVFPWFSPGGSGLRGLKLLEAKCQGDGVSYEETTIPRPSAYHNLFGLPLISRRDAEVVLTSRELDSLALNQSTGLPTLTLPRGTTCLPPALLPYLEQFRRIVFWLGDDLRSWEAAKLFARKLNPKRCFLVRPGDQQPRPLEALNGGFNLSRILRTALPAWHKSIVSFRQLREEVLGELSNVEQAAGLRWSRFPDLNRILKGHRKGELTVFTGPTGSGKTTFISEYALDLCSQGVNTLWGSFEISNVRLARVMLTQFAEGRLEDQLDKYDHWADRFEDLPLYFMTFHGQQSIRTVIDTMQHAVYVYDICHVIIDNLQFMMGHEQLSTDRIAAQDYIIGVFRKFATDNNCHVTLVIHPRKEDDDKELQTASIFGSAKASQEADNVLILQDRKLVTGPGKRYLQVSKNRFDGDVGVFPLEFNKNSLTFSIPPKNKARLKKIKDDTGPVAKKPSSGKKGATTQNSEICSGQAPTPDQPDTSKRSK
Description: FAM fluorescence quenching titration.

B1: BHQ1-dT22 (ssDNA)
DNA: TTTTTTTTTTTTTTTTTTTTTT
The Kd is the constant that tells how readily two partners part at equilibrium. Consider B1, for which the Kd was 27.7 ± 3.8 nM.

For the origin of these results see paper PMC11063129.
